Results reported in the supplement of paper PMC7125110.
± gives the standard error. For some of these results: Variants at the floor of the assay were thinned out.

B1: glmS ribozyme (parent)
chain: AUAAAAGCGCCAGAACUACAGAAAUGUAGUUGACGAGGAGGAGGUUUAUCGAAUUUUCGGCGGAUGCCUCCAAA

Key:
Settings in all cases: with glucosamine-6-phosphate
[1] = variants of: B1; test: kcat; higher = faster cleavage; RNA array
In short: (§1)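 Over ~14 h at 37 °C, tiles were imaged as glucosamine-6-phosphate (40 μM to 10 mM) in HEPES/KCl/Mg(OAc)2 buffer flowed across sequenced MiSeq chips. The chips carried barcoded ribozyme variants transcribed in situ by E. coli RNA polymerase and tracked with a hybridised Cy3 probe. After normalisation to baseline and to non-cleaving reference variants, one- or two-exponential decay fits of per-tile medians gave kobs. kcat and KM followed from weighted Michaelis–Menten fits across concentrations.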

[2] = variants of: B1; test: KM; higher = weaker cofactor use; RNA array
In short: as §1

[3] = variants of: B1; test: self-cleavage kobs at 160 uM GlcN6P; higher = faster cleavage; RNA array
In short: as §1

[4] = variants of: B1; test: self-cleavage kobs at 640 uM GlcN6P; higher = faster cleavage; RNA array
In short: as §1

[5] = variants of: B1; test: self-cleavage kobs at 2500 uM GlcN6P; higher = faster cleavage; RNA array
In short: as §1

[6] = variants of: B1; test: self-cleavage kobs at 10000 uM GlcN6P; higher = faster cleavage; RNA array
In short: as §1

[7] = variants of: B1; test: self-cleavage kobs at 40 uM GlcN6P; higher = faster cleavage; RNA array
In short: as §1

Row | Variant | kcat [1] | KM [2] | self-cleavage kobs at 160 uM GlcN6P [3] | self-cleavage kobs at 640 uM GlcN6P [4] | self-cleavage kobs at 2500 uM GlcN6P [5] | self-cleavage kobs at 10000 uM GlcN6P [6] | self-cleavage kobs at 40 uM GlcN6P [7]
1 | A12G C71U | 0.00146 ± 0.0001 s⁻¹ | 4370 ± 470 µM | 5.89e-05 ± 1.1e-05 s⁻¹ | 0.000183 ± 1.9e-05 s⁻¹ | 0.000525 ± 4.6e-05 s⁻¹ | 0.00102 ± 8.1e-05 s⁻¹ | –
2 | A12C U69C | 0.0042 ± 0.0012 s⁻¹ | 1520 ± 630 µM | 0.000486 ± 0.00013 s⁻¹ | 0.000885 ± 0.0002 s⁻¹ | 0.00295 ± 0.00069 s⁻¹ | 0.00396 ± 0.00074 s⁻¹ | 0.000133 ± 2.3e-05 s⁻¹
3 | A12C U69G | 6.77e-05 ± 5.2e-06 s⁻¹ | – | 5.5e-05 ± 1.2e-05 s⁻¹ | 6.7e-05 ± 8.9e-06 s⁻¹ | 7.6e-05 ± 9.1e-06 s⁻¹ | 5.86e-05 ± 7.7e-06 s⁻¹ | –
4 | A12C U46A | 0.00133 ± 0.00029 s⁻¹ | 2440 ± 900 µM | 0.000101 ± 2.8e-05 s⁻¹ | 0.000302 ± 4.8e-05 s⁻¹ | 0.000533 ± 9.6e-05 s⁻¹ | 0.00122 ± 0.00017 s⁻¹ | –
5 | A12C U46G | 0.00332 ± 0.00078 s⁻¹ | 1950 ± 600 µM | 0.000221 ± 3.6e-05 s⁻¹ | 0.000761 ± 0.00012 s⁻¹ | 0.002 ± 0.00032 s⁻¹ | 0.00278 ± 0.00064 s⁻¹ | 8.74e-05 ± 1.3e-05 s⁻¹
6 | A12G G51C | < 1e-05 s⁻¹ | – | < 1e-05 s⁻¹ | – | < 1e-05 s⁻¹ | < 1e-05 s⁻¹ | < 1e-05 s⁻¹
7 | A12U G37A G40C | 0.00099 ± 0.00024 s⁻¹ | 4220 ± 1400 µM | 2.74e-05 ± 1.2e-05 s⁻¹ | 0.000134 ± 1.7e-05 s⁻¹ | 0.000386 ± 9.8e-05 s⁻¹ | 0.000686 ± 0.00012 s⁻¹ | –
8 | A12G U56G | 0.000904 ± 9.3e-05 s⁻¹ | 6610 ± 950 µM | – | 8.35e-05 ± 8.6e-06 s⁻¹ | 0.00024 ± 2.2e-05 s⁻¹ | 0.000553 ± 5.7e-05 s⁻¹ | –
9 | A12G G13C | 2.64e-05 ± 6.5e-07 s⁻¹ | 2100 ± 230 µM | < 1e-05 s⁻¹ | – | – | – | < 1e-05 s⁻¹
10 | A12G C68U | 0.000271 ± 1.9e-05 s⁻¹ | 2400 ± 390 µM | 3.11e-05 ± 1.2e-05 s⁻¹ | 5.55e-05 ± 6.8e-06 s⁻¹ | 0.000137 ± 1.5e-05 s⁻¹ | 0.000219 ± 1.5e-05 s⁻¹ | –
11 | A12G C67G | 0.000322 ± 4.9e-06 s⁻¹ | 1850 ± 62 µM | 2.45e-05 ± 1.1e-05 s⁻¹ | 8.36e-05 ± 8.2e-06 s⁻¹ | 0.000182 ± 1.7e-05 s⁻¹ | 0.000273 ± 1.9e-05 s⁻¹ | –
12 | A12U G29U G59U C68G C70A | 3.34e-05 ± 1.4e-05 s⁻¹ | – | – | 4.93e-05 ± 2.3e-05 s⁻¹ | – | – | –
13 | A12U A15U | 0.0118 ± 0.0023 s⁻¹ | 1190 ± 320 µM | 0.0011 ± 0.00016 s⁻¹ | 0.00509 ± 0.00065 s⁻¹ | 0.00905 ± 0.0015 s⁻¹ | 0.00986 ± 0.0013 s⁻¹ | 0.000433 ± 4.6e-05 s⁻¹
14 | A12G G32C C68G | 1.4e-05 ± 2.2e-06 s⁻¹ | – | – | – | – | – | –
